Drawing on article PMC5489213, this text covers infection of CMT-93 cells by MAdV-2 pre-incubated with cryptdin 2 (dose-responsive over the indicated concentrations), relative to infection without defensin, infection of CMT-93 cells by MAdV-2.IXeGFP pre-incubated with cryptdin 2 (dose-responsive over the indicated concentrations), relative to infection without defensin and infection of CMT-93 cells by MAdV-2.IXeGFP pre-incubated with cryptdin 3 (indicated concentrations), relative to infection without defensin for 2 molecules.

For assay [1], the target named is mouse adenovirus 2 (MAdV-2), wild type virus particle (mouse adenovirus 2).
Assay [2] addresses MAdV-2.IXeGFP virus particle (replication competent MAdV-2 with enhanced green fluorescent protein fused to minor capsid protein IX) (mouse adenovirus 2 | not stated).
For assay [3] the target is unchanged. The source holds these as a separate data set.

In assay [1], Cryptdin 2 (peptide) registered an infection of CMT-93 cells by MAdV-2 pre-incubated with cryptdin 2 (dose-responsive over the indicated concentrations), relative to infection without defensin of 1.8 fold. For the same molecule, in assay [2], the infection of CMT-93 cells by MAdV-2.IXeGFP pre-incubated with cryptdin 2 (dose-responsive over the indicated concentrations), relative to infection without defensin is 2.4 fold.

B1: Cryptdin 3 (peptide)
peptide: LRDLVCYCRKRGCKRRERMNGTCRKGHLMYTLCCR
Take B1: the infection of CMT-93 cells by MAdV-2.IXeGFP pre-incubated with cryptdin 3 (indicated concentrations), relative to infection without defensin in assay [3] was determined as 1.7 fold.
